Assay results published in PMC6722581.

Experiments:
[1] = target: head domain of measles virus hemagglutinin, IC-B wild-type strain (measles virus, IC-B strain) (UniProt Q786F2); assay: SPR
[2] = target: head domain of measles virus hemagglutinin, Edmonston vaccine strain (measles virus, Edmonston strain) (UniProt P08362); assay: SPR
Sequence of UniProt P08362 (P08362 149-617): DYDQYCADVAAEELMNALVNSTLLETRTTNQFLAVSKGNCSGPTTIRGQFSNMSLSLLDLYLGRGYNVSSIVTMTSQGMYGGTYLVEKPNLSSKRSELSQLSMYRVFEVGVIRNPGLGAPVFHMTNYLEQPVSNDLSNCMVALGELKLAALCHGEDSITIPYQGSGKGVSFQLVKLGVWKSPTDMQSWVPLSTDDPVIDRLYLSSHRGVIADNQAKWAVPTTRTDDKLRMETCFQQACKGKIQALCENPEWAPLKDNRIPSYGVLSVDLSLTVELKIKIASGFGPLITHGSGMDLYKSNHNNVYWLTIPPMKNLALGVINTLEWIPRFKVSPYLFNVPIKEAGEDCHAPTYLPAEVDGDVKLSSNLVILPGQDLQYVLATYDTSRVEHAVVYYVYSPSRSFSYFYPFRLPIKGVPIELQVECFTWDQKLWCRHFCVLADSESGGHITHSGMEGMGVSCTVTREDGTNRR

Sequence of UniProt Q786F2 (Q786F2 149-617): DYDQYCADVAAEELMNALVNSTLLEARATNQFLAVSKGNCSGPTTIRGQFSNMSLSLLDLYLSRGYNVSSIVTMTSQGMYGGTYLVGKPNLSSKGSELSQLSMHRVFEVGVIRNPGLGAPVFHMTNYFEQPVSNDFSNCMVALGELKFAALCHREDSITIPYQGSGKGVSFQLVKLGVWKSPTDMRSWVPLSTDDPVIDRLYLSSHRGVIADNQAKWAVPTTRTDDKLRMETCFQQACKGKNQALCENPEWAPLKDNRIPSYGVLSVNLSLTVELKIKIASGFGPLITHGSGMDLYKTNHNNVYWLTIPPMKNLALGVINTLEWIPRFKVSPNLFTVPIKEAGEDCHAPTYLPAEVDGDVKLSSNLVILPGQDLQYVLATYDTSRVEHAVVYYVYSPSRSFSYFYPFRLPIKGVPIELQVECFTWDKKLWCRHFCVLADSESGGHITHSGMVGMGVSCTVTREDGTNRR

For “soluble human SLAM, chimeric protein of a human V-set with a mouse C2 domain (domain or fragment)”, the Kd [1] was 448 nM, the koff [1] was 0.00637 s⁻¹ and the kon [1] was 14100 M⁻¹ s⁻¹. For the same substance, the Kd [2] was 60.8 nM, the koff [2] was 0.00291 s⁻¹ and the kon [2] was 47900 M⁻¹ s⁻¹.
